Results reported in US20240383959A1, “CELL-FREE METHODS AND COMPOSITIONS COMPRISING TAGLESS THERAPEUTIC HORMONES” (Northwestern University, priority 2021, published 2024).

Legend:
Escherichia coli MG1655 = test: Plate-based growth inhibition assay; format: cell-based; conditions: overnight incubation, 384 well plate, two replicates; peptide purified from CFPS
Experimental: Antimicrobial peptide activity was tested with a plate-based growth inhibition study. A 5 ml culture of Escherichia coli MG1655 was grown overnight on Luria Broth (LB) from a glycerol stock. On the day of the assay, the overnight culture was diluted to an OD of 0.08 in LB and then grown to mid log phase (OD ˜0.5). The mid log phase cells were diluted to […] (assuming 1 OD=8×10^8 cells/ml) into LB with 0.005% Antifoam 204 (Sigma A6426) and 1 mg/ml BSA (Sigma-Aldrich A2153-100G). 5 μl of these cells were added to 10 μl of purified antimicrobial peptide in a UV-sterilized 384 well, clear bottom plate (Greiner Bio-One 781096). Positive controls included 10 μl of the wash buffer the hormones were dissolved in and 10 μl of a no DNA control where no DNA template was added to the CFPS reactions, but the sample was treated exactly like the other antimicrobial peptide samples. Negative controls included a final kanamycin concentration of 50 μg/ml and adding 10 μl of the LB with 0.005% Antifoam 204 and 1 mg/ml BSA without E. coli cells. The plate was sealed with a microseal B adhesive (Bio-Rad MSB1001) and incubated in a plate reader with continuous shaking for 18 hr at 37° C. and absorbance measurements at 600 nm every 15 min.

[1] = molecular target: T1, parathyroid hormone receptor (Homo sapiens, UniProt Q03431); test: Biolayer interferometry (BLI) of PTH binding to its receptor; conditions: undiluted CFPS PTH or 67 μg/ml commercial PTH; with and without receptor on tip
T1 construct: purchased R&D systems 5709-PR-50
T1 sequence (Q03431 27-186 limits assumed): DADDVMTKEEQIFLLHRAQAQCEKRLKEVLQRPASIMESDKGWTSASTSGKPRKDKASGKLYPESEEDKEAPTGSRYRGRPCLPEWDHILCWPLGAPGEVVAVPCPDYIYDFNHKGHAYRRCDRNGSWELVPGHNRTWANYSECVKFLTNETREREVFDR
Source text: In fact, the entire sequences except for the two N-terminal and C-terminal amino acids were confirmed for both GLP-1 mutant and GLP-1 in these experiments. The peptide hormones are cleaved precisely at the C-terminus of SUMO to give tagless hormones as expected. […] There was low signal relative to GH, however, the binding signal is still more than 3 standard deviations above the background noise. Unfortunately, this binding was unable to be confirmed with BLI, likely because the hormone is too small (3.5 kDa) to generate enough of a wavelength shift to be detected by the instrument (FIG. 9f). […] Full-length parathyroid hormone was detected in the deconvoluted LC-MS spectra with an observed mass of 9424.66 Da, which matches the theoretical mass of 9424.73 Da with an error of 7.4 ppm (FIG. 10a). PTH was also detected by two orthogonal antibodies in a commercial sandwich ELISA assay (Biomatik EKF58372). The concentration was determined to be 24±11 μg/ml with 4 dilutions of a single sample (FIG. 10a). This value is approximately 80% of that detected by BCA and densitometry. […] Black lines represent a commercially purchased positive control PTH (OriGene SA6052) where there is no receptor immobilized on the lightly shaded line and receptor immobilized with the dark line. […]

[2] = molecular target: T2, extracellular domain of PTH receptor (Homo sapiens, UniProt Q03431); test: AlphaLISA cross-titration of PTH and PTH receptor; format: binding; conditions: sFLAG-tagged PTH, anti-FLAG donor beads; His-tagged PTH receptor, nickel chelate acceptor beads
T2 construct: purchased Abcam ab182670
T2 sequence (Q03431 27-186 limits assumed): T1 sequence (Q03431 27-186 limits assumed)

| Substance | Growth of E. coli MG1655 (Escherichia coli MG1655) | PTH binding to extracellular domain of its receptor (BLI) [1] | PTH interaction with extracellular domain of its receptor (AlphaLISA) [2] |
| --- | --- | --- | --- |
| Melittin | inhibiting growth of the bacteria |  |  |
| Parathyroid Hormone [PTH] |  | unable to detect PTH binding | very low signal that has a typical binding pattern |
| positive control PTH: commercially purchased positive control PTH (OriGene SA6052) [reference compound] |  | high background binding |  |
